From article PMC12844804, “Paving the Way for CCK2R-Targeted Peptide Receptor Radionuclide Therapy with [^177Lu]Lu-DOTA-MGS5 in Patients with Small Cell Lung Cancer” (Pharmaceutics, 2026)
Where two headings read alike, the source gives them in different places.

Assays:
[1] = test system: patient with ED-SCLC; format: in vivo, human
From the text: A patient diagnosed with SCLC (initial stage: T4 N3 M1b with primary tumor of the left central lung and possible metastasis to the left adrenal gland) completed first-line systemic therapy with carboplatin/etoposide/atezolizumab (schedule: day 1–day 3, every three weeks) followed by maintenance therapy with atezolizumab and prophylactic cranial irradiation (fractions of 2 Gy each, reaching a total dose of 30 Gy; cognitive preservation with memantine). Subsequently, the entire primary tumor region, including the selectively involved lymph nodes on the left central side, was irradiated (fractions of 2 Gy, resulting in a total dose of 60 Gy). After completing EBRT approximately six months after diagnosis, the disease remained stable for the following four months. Ten months after diagnosis, a new metastasis to the right adrenal gland occurred, and re-induction therapy with carboplatin/etoposide/atezolizumab was administered (a total of four cycles; schedule: day 1–day 3, every three weeks). In the follow-up CT scan, progressive disease was identified again, and third-line therapy with cyclophosphamide/doxorubicin/vincristine was initiated (a total of four cycles; schedule: day 1–day 2, every three weeks). […] After 2 cycles, the disease again progressed. This time, there was progression of the primary tumor, liver metastases and new lymph node metastases. Thus, alternative image-guided treatment strategies were evaluated. […] Thus, the patient was considered eligible for PRRT with [^177Lu]Lu-DOTA-MGS5. PRRT was performed under the responsibility of the treating physician and after tumor board approval. According to the Austrian Medicines Act (Arzneimittelgesetz §8), named patient use (“Heilversuch”) was not subject to authorization by or notification to the authorities. Written informed consent was obtained from the patient. All procedures were in accordance with the principles of the 1964 Declaration of Helsinki and its subsequent amendments. The retrospective analysis of the data of the patient was exempted from consultation with the Ethics Committee by the Medical University of Innsbruck.
Adequate hydration was ensured through intravenous infusion of 1000 mL of 0.9% saline solution at a rate of 300 mL/h, starting 30 min before and continuing for 2 h after treatment administration. The patient received prophylactic antiemetic therapy with 4 mg ondansetron, as well as 4 mg dexamethasone and 40 mg pantoprazole, given 20 min before the treatment. Prophylactic antiemetic therapy was repeated 12 h after therapy.
[^177Lu]Lu-DOTA-MGS5 was administered intravenously via a dedicated peristaltic infusion pump system over a period of 15–20 min. The patient was discharged at the third day following therapy. The treatment was repeated approximately every four weeks.
Whole-body SPECT/CT after each therapy cycle was performed using a dual-head SPECT/CT system (NM/CT 870 DR; GE Healthcare, Chicago, IL, USA) approximately 24 h after injection of [^177Lu]Lu-DOTA-MGS5. The acquisition consisted of 60 projections over 360° with an angular step of 6° and a dwell time of 20 s per projection. A medium-energy general-purpose collimator was used. The primary energy window was set to 187.2–228.8 keV and the scatter window to 169.1–186.9 keV. SPECT images were reconstructed using the manufacturer’s proprietary algorithms (OSEM with resolution recovery), using 2 iterations and 10 subsets and no post-reconstruction filtering. The reconstructed matrix size was 128 × 128, with a pixel size of 4.42 mm. Photon scatter correction was performed using the dual energy window method, and attenuation correction was performed using a low-dose CT scan acquired at 120 kVp, 30 mAs effective, with CareDose4D activated. Whole-body planar imaging was performed in anterior and posterior views using the same system. The scan was conducted in supine position, feet-first orientation. The table traversed 1.14 m at a speed of 10 cm/min. […]

[2] = test system: A431-CCK2R cells; settings: ~100 nM, 24 h treatment, 12 days colony formation, mean ± SD of four independent experiments in triplicate
Protocol: After this treatment, the medium was aspirated and the cells were gently washed twice with phosphate-buffered saline (PBS) and then incubated at 37 °C for 12 days to allow colony formation. At the end of the incubation period, the culture medium was removed, and the wells were gently rinsed twice with PBS.
Colonies were fixed by adding 1 mL of a 3:1 methanol–glacial acetic acid solution to each well and incubated for 20 min at room temperature in a chemical hood. The solution was removed and the fixed cells gently rinsed twice with 1 mL of PBS.
Staining was performed using 1 mL of Giemsa stain (modified solution; Sigma-Aldrich, St. Louis, MO, USA, CAS No. 32884) diluted 3.5:10 in Milli-Q water. Plates were incubated with the staining solution for 2 h at room temperature. After staining, wells were rinsed twice with Milli-Q water, and plates were inverted on absorbent paper to air-dry.
Colonies were counted manually, with each visible purple-stained cluster considered as one colony. […] Each data point represents the mean ± standard deviation (SD) of four independent experiments, each performed in triplicate.

[3] = human, in vivo
Protocol: For dosimetry, both planar and SPECT/CT imaging were performed at nominal time points of 30 min and 4, 24, 72 and 96 h post-injection (p.i.). The acquisition protocol for the first three time points followed the procedure described above. For the 72 and 96 h scans, the dwell time per projection for SPECT acquisition was increased to 24 s, and the planar scan speed was reduced to 8 cm/min to compensate for the reduced count statistics at later time points. The gamma camera sensitivity was calibrated according to the GE Healthcare-recommended protocol (DICOM Conformance Statement: NM General Purpose 600/800 Series, Rev. 15, 2018). A Petri dish containing a known activity of lutetium-177 was used as the calibration source, yielding a calibration factor of 5.2 cps/MBq. To correct for partial volume effects (PVEs), recovery coefficients (RCs) were determined using an IEC-NEMA phantom with fillable spheres of varying diameters, and a Jaszczak phantom containing a 60 mm sphere (Data Spectrum Corporation, Hillsborough, NC, USA). For each sphere, RCs were calculated, and a logarithmic regression model was fitted to generate a recovery curve. Two selected well-delineable lesions were segmented on 24 h p.i. SPECT images using a 41% isocontour threshold in Affinity 3.0 (Hermes Medical Solutions, Stockholm, Sweden). Subsequently, SUVmax values normalized to body weight were computed and corrected for PVEs using the corresponding RCs. […] (Supplementary Figure S3A). […] Additionally, the mean absorbed dose to the tumor was 12.5 ± 10.2 Gy/GBq (range: 1.2-28 Gy/GBq) across five well-delineated lesions. The time-activity curves for kidneys, stomach wall and two selected lesions were fitted and extrapolated using non-linear regression. […] A tri-exponential function was used for the kidneys, while a bi-exponential model (with k3 = 0) was applied for the stomach wall and the two lesions. […]

[4] = human, in vivo, iv; cited from earlier work
Protocol: Due to disease progression observed at the radiologic follow-up examination during fourth-line treatment with topotecan (Figure 4a–f) and following confirmation of intense tracer uptake on [^68Ga]Ga-DOTA-MGS5 PET/CT, the patient underwent a preliminary dosimetric evaluation with [^177Lu]Lu-DOTA-MGS5 to calculate the absorbed dose to organs at risk and the tumor. After the intravenous administration of 1.5 GBq [^177Lu]Lu-DOTA-MGS5 (corresponding to a peptide dose of less than 100 µg), scintigraphic images were acquired at 30 min, 4 h, 24 h, 72 h and 96 h p.i. (Supplementary Figure S3A). As prev ...

[5] = test system: A431-CCK2R cells; format: cell-based, human; settings: ~250 kBq, 2 nM/well; for relative viability: viability 72 h after treatment, % of non-irradiated control, n = 3
Protocol: To investigate the cytotoxic effect of [^177Lu]Lu-DOTA-MGS5 on A431-CCK2R cells in comparison with EBRT, cells were counted using a TC20 automated cell counter (Bio-Rad Laboratories, Hercules, CA, USA), seeded at a density of 1 × 10^5 cells per well in 6-well plates and incubated at 37 °C with 5% CO2. After 24 h, cells were irradiated with varying doses (2, 4 and 8 Gy) using a linear accelerator (Elekta Precise, Elekta Oncology Systems, Crawley, England, UK) or by incubation with [^177Lu]Lu-DOTA-MGS5 (~250 kBq, 2 nM/well) for 4 and 24 h followed by replacement with fresh medium. Incubation periods of 4 h and 24 h were selected based on the previously established internalization kinetics and the stability data obtained for [^177Lu]Lu-DOTA-MGS5 [25]. At the time point of 72 h after treatment, cell viability was assessed using a Beckman Coulter Vi-CELL AS cell viability analyzer (Beckman Coulter, Fullerton, CA, USA). The supernatant from each well was collected in 15 mL Falcon tubes. Cells were then washed twice with 1 mL of serum-free medium, and the wash fractions were combined with the respective supernatants. Trypsin (300 µL) was added to each well, and plates were incubated until detachment. Following detachment, 1 mL of medium was added to each well, and cells were rinsed and transferred to their respective Falcon tubes. This washing step was repeated twice, reaching a total volume of 3 mL. Cells were pelleted by centrifugation in a benchtop centrifuge (Megafuge™ 8; Thermo Fisher Scientific, Waltham, MA, USA) at 2000 rpm for 8 min at 4 °C, and the supernatant was discarded. Pellets were resuspended in 1 mL of cold serum-free medium. Samples were loaded into the Vi-CELL AS analyzer according to the manufacturer’s instructions. The number of viable cells in each treatment group was normalized to the mean number of viable cells in the non-irradiated control group and expressed as a percentage of the control.

[6] = test system: patients with advanced MTC; settings: human, in vivo; cited from earlier work
Protocol: So far, ^177Lu-labeled peptides targeting CCK2R have been used for PRRT in patients with advanced MTC. […] In a dose escalation study, six patients with advanced MTC were treated with up to three to four cycles of [^177Lu]Lu-PP-F11N (3 × 6 GBq or 4 × 8 GBq) ...

CCCC[C@@H](C(=O)N[C@@H](CC(=O)O)C(=O)N[C@@H](Cc1cccc2ccccc12)C(N)=O)N(C)C(=O)[C@H](Cc1c[nH]c2ccccc12)NC(=O)CNC(=O)[C@H](Cc1ccc(O)cc1)NC(=O)[C@H](C)NC(=O)[C@@H](CCC(=O)O)NC(=O)CN1CCN(CC(=O)O)CCN(CC(=O)O)CCN(CC(=O)O)CC1 [[^177Lu]Lu-DOTA-MGS5, metal not drawn]
change of SUVmax in two well-delineated lesions ([1]; SPECT 24 h p.i., dosimetry and first three cycles, PVE corrected): only a minor decrease
uptake in new disseminated liver metastases ([1]; SPECT/CT after the fourth cycle): negative
clinical symptoms ([1]; after the second administration): improvement
lesion uptake on serial SPECT/CT after each treatment cycle ([1]; approximately 24 h p.i.): overall stable uptake
follow-up contrast-enhanced CT finding ([1]; at the fourth cycle of PRRT): continued disease progression
GGT ([1]; human, in vivo): 74 U/L
GOT ([1]; human, in vivo): 44 U/L
GPT ([1]; human, in vivo): 14 U/L
Karnofsky Index ([1]; human, in vivo): 100%
absorbed dose delivered to the tumor lesions during PRRT, range ([1]; human, in vivo): 21-482 Gy
absorbed dose of healthy tissue, bone marrow ([1]; human, in vivo): 0.4 Gy
absorbed dose of healthy tissue, kidneys ([1]; human, in vivo): 5 Gy
absorbed dose of healthy tissue, stomach ([1]; human, in vivo): 7 Gy
adverse effect following the first administration ([1]; human, in vivo): mild nausea
creatinine ([1]; human, in vivo): 0.64 mg/dL
eGFR ([1]; human, in vivo): > 60 mL/min/1.73 m^2
hematological, renal or hepatic toxicities in laboratory tests ([1]; human, in vivo): no hematological, renal or hepatic toxicities
mean absorbed dose delivered to the tumor lesions during PRRT ([1]; human, in vivo): 215 Gy
weight loss ([1]; human, in vivo): approximately 2 kg
NSE levels ([1]; tumor marker during four administrations): slight reduction after the first three administrations but increased by the fourth administration
clonogenic survival ([2]; 2 MBq/well): 54.9 ± 10.9%
clonogenic survival ([2]; 250 kBq/well): 82.7 ± 6.5%
tracer clearance kinetics, CCK2R-positive stomach wall [3]: slower and more prolonged washout
tracer clearance kinetics, kidneys [3]: rapid initial decline in activity
tracer clearance kinetics, thoracic wall lesion and gastrointestinal tract lesion [3]: gradual mono-exponential decrease in activity
absorbed dose to the bone marrow [4]: 0.022 Gy/GBq
absorbed dose to the kidneys [4]: 0.28 Gy/GBq
absorbed dose to the stomach [4]: 0.42 Gy/GBq
absorbed dose to the tumor, range [4]: 1.2–28 Gy/GBq
mean absorbed dose to the tumor [4]: 12.5 ± 10.2 Gy/GBq
EBRT dose with comparable response ([5]; 4 h and 24 h incubation, compared with EBRT 2, 4 and 8 Gy): 2-4 Gy
relative viability ([5]; 4 h incubation): 58.5 ± 3.3%
relative viability ([5]; 24 h incubation): 55.5 ± 8.3%

DOTA-(DGlu)6-Ala-Tyr-Gly-Trp-Nle-Asp-Phe-NH2 [[^177Lu]Lu-PP-F11N, ^177Lu-labeled CCK2R-targeting agonist]
dose-limiting toxicity [6]: without signs of dose-limiting toxicity
median absorbed tumor dose [6]: 0.88 Gy/GBq
